The Kd is a measure of binding affinity in units of concentration.

For 4 molecules, Kd results are on record in article PMC9871032 (2023).

The target of test [1] is His-tagged ectodomain of human IL-2Rα (human) (UniProt P01589). As to the kind of experiment: BLI; His-tagged IL-2Rα immobilised by amine coupling on AR2G biosensors; Octet RED96, 25 °C, D-PBS with 0.2% BSA and 0.05% Tween 20; two-fold dilutions (1.5-100 nM) of IL-2 and L72-FSY; dissociation 300 s; global 1:1 fit. On the technique in general: In BLI a coated tip is dipped into the sample, and binding shifts an interference pattern.

Test [2] deals with IL-2Rα (Homo sapiens) (UniProt P01589). Conditions: cited from earlier work.
Test [3] concerns the target dimeric IL-2 receptor (Homo sapiens) (UniProt P14784). Conditions: cited from earlier work.
Test [4] has as its target extracellular domain of IL-2Rβ (UniProt P14784). As to the kind of experiment: BLI; biosensors bearing the extracellular domain of IL-2Rβ; samples in a series of 3-fold dilutions.
The target in test [5] is L72-FSY-IL-2 (human, UniProt P60568 21-153, L72-FSY, fluorosulfate-L-tyrosine (FSY) at 72). In words: BLI.

IL-2Rα (Homo sapiens), sequence (P01589 22-240): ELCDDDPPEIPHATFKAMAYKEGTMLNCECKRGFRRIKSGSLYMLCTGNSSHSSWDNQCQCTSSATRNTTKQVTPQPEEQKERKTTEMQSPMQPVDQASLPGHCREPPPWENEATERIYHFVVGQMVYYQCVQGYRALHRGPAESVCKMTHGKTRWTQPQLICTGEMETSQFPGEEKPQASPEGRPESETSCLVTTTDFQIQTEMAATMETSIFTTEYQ

Take “L72-FSY-IL-2 (human IL-2 with fluorosulfate-L-tyrosine at position 72) (from UniProt P60568 21-153) (ligand)”: in test [1], the equilibrium dissociation constant (Kd) amounted to 10.3 nM.

In the case of IL-2 (from UniProt P60568), the dissociation constant (Kd) was 10 nM in test [2] and 1 nM in test [3].

“N-terminally PEGylated L72-FSY-IL-2 (from UniProt P60568 21-153) (ligand)”: the figures for the Kd in test [1] and in test [4] were 45.1 nM and 743 nM, respectively.

B1: extracellular domain of the β subunit of IL-2R (receptor)
chain: AVNGTSQFTCFYNSRANISCVWSQDGALQDTSCQVHAWPDRRRWNQTCELLPVSQASWACNLILGAPDSQKLTTVDIVTLRVLCREGVRWRVMAIQDFKPFENLRLMAPISLQVVHVETHRCNISWEISQASHYFERHLEFEARTLSPGHTWEEAPLLTLKQKQEWICLETLTPDTQYEFQVRVKPLQGEFTTWSPWSQPLAFRTKPAALGKDT
B1 registered an equilibrium dissociation constant (Kd) in test [5] of 70 nM.
